The target in assay [1] is T1, sp2 isoform of human CD123 ECD with C-terminal 8xHis tag (crystallography) (human, UniProt P26951 101-303).
T1 construct: expressed in baculovirus-infected insect cells; also called CD123 sp2; CD123 SP2 ECD
T1 sequence: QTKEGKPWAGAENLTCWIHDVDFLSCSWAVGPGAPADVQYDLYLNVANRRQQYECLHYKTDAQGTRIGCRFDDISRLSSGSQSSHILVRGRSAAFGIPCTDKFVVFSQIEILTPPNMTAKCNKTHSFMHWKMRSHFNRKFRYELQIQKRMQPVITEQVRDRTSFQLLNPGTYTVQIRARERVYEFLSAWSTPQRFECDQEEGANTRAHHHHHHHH
Nature of the assay: size-exclusion chromatography of the mixed proteins. The protocol:
The protein was concentrated to 18 mg/mL in 20 mM HEPES, pH 7.5, 100 mM NaCl.
(In general: In gel filtration, larger molecules generally elute earlier.)

Assay [2] has as its target T2, cyno CD123 ECD displayed on pDisplay-transfected cells (cynomolgus monkey).
T2 construct: ECD anchored on the surface of stably transfected HEK293 cells; also called cynoCD123 SP1 cells; cynoCD123 cells
T2 chain: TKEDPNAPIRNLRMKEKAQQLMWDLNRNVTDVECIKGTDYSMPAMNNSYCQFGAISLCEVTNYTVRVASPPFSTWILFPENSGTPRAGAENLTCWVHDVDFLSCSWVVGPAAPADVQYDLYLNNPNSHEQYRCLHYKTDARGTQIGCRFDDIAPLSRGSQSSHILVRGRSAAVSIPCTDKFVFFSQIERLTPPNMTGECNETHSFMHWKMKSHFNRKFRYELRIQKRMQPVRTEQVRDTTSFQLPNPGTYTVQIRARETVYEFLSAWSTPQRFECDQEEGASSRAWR
Nature of the assay: MSD-CAT, cynoCD123 cells, assay-2. The protocol:
(§1) The MSD-CAT was developed in-house as a label-free method to determine affinity using intact cells in a high throughput format. […] Cell lines used were human pDisplay CD and cyno pDisplay CD123SP1. […] These samples were prepared in DMEM Glutamax medium containing 0.05% Azide, 1% BSA, 3 mM EDTA. The receptor numbers of (3.15-4.18)×10⁶ hCD123/cell and (4.78-9.24) 10⁶ cyCD123/cell were converted to M receptor concentration in the mixture on the basis of the volume of reaction, the cell density (cells/L) and the Avogadro's number. […] After equilibration the plate was centrifuged for 5 min ˜1000 rpm and free anti-CD3 detected on the supernatant.

The target of assay [3] is T3, human CD123 SP1 ECD displayed on pDisplay-transfected cells (human, UniProt P26951 20-305).
T3 construct: ECD anchored on the surface of stably transfected HEK293 cells by the PDGFR transmembrane domain; also called hCD123 SP1 cells; hCD123 cells
T3 sequence: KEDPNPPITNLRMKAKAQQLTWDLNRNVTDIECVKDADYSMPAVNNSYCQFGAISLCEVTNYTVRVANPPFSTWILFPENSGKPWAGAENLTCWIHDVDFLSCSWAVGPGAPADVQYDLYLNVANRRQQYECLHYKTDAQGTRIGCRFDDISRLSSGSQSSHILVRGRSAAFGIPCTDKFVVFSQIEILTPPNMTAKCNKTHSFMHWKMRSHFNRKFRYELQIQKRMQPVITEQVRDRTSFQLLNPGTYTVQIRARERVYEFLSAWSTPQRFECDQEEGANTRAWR
Nature of the assay: MSD-CAT, hCD123 cells, assay-2. The procedure:
(§2) After equilibration the plate was centrifuged for 5 min ˜1000 rpm and free anti-CD3 detected on the supernatant. […] The assay buffer was removed without washing and 50 μL/well of 0.7 μg/mL of biotinylated antigen in assay buffer were added to MSD plates and incubated overnight (˜16 hr at 4° C.). After overnight incubation, the plates were blocked by adding 150 μL/well of assay buffer without removing coating antigen, incubated for ˜1 hr at ambient temperature and washed 5 times with wash buffer (assay buffer without BSA). 50 μL/well of the supernantants from samples plate were transferred to antigen-coated plates, incubated for 60 min, and then washed three times with wash Buffer. After this 50 μL per well of ruthenium labeled detection antibody(anti-human H+L) were added and incubated for 1 hr. After 1 hr the plates were washed and 150 μL of MSD Read Buffer (prepared by diluting 1:4 of stock into d. H₂O) were added per well. The plates were read immediately on the MSD Sector Imager 6000 Reader for luminescence levels. ECL signal detected by MSD was expressed in term of % free antibody in the mixture and the data was analyzed to determine affinity using a user defined equation (derived from the law of mass action) introduced in Prism software.

For assay [4], the target named is T4, Recombinant human CD123 SP2 ECD protein (human, UniProt P26951 101-303).
T4 construct: also called rhCD123 SP2; CD123 ECD SP2
T4 sequence: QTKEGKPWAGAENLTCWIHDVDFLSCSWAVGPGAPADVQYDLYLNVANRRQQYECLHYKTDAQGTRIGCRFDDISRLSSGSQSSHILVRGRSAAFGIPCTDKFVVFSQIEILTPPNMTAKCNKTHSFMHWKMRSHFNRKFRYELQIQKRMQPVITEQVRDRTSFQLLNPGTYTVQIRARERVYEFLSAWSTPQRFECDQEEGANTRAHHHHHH
Nature of the assay: SPR Biacore 3000, captured Fab. The protocol:
(§3) Kinetic studies were performed at 25° C. using a Biacore 3000 (BIAcore, Inc., now part of GE Healthcare). […] Sheep anti-Human Fd specific antibody (The binding site Prod # PC075) was covalently attached to two flow cells (normally 3 and 4) of the carboxymethyl dextran coated gold surfaces (CM-5 Chip, Biacore). The carboxymethyl groups of dextran were activated with N-Ethyl-N′-(3-Dimethylaminopropyl)carbodiimide (EDC) and N-hydroxysuccinimide (NHS). The antibodies were coupled at pH 4.5 in 10 mM sodium acetate. Any remaining reactive sites on the surface were blocked by reaction with ethanolamine. […] Association data was collected for 2 min followed by 10 min of dissociation. The surface was regenerated with 30 μL of 100 mM H3PO4 100 μL/min. All samples were prepared in D-PBS containing 3 mM EDTA and 0.005% surfactant P20. Data reported is the difference in SPR signal between the flow cell containing the captured antibody or Fab and a reference cell without captured antibody or Fab. Additional instrumental contributions to the signal were removed by subtraction of the data from the blank injection from the reference-subtracted signal. Data were performed in triplicate and analyzed by fitting association and dissociation phases at all concentrations (global fit) with a 1:1 binding model using the BIAevaluation software (BIAcore, Inc.). […] Data presented is an average.
(In general: In SPR one partner is held on a chip, and binding of the other changes the refractive index at the surface.)

Assay [5] has as its target T5, Recombinant human CD123 SP1 ECD-His tag protein (human, UniProt P26951 20-305).
T5 construct: bought from R&D Systems (#301-R3/CF); biotinylated for some assays; also called rhCD123 SP1; huCD123 ECD SP1
T5 sequence: T3 sequence
Nature of the assay: SPR Biacore 3000, captured Fab. The procedure:
as §3

In assay [6] the target is T3, human CD123 SP1 ECD displayed on …. Nature of the assay: MSD-CAT, hCD123 cells, assay-2, fit with parameter Bo constrained. The procedure: as §2
The target of assay [7] is T2, cyno CD123 ECD displayed on …. Nature of the assay: MSD-CAT, cynoCD123 cells, assay-1. The protocol:
as §1

For assay [8] the target is unchanged. Nature of the assay: MSD-CAT on pDisplay cells. The protocol:
as §2

Assay [9] deals with T3, human CD123 SP1 ECD displayed on …. Nature of the assay: MSD-CAT, hCD123 cells, assay-1, fit with parameter Bo constrained. The procedure:
as §2

The target is the same in assay [10]. Nature of the assay: MSD-CAT, hCD123 cells, assay-1. The procedure:
as §2

Broadly, the Kd is a measure of binding affinity in units of concentration. Broadly, the koff is the rate constant with which the complex falls apart. Usually kon stands for a measure of how fast the partners come together.

B1: single-chain Fv fragment of anti-CD123 mAb I3RB18 (scFv)
scFv: EIVLTQSPGTLSLSPGERATLSCRASQSVSSSYLAWYQQKPGQAPRLLIYGASSRATGIPDRFSGSGSGTDFTLTISRLEPEDFAVYYCQQDYGFPWTFGQGTKVEIKGGGGSGGGGSGGGGSGGGGSEVQLVQSGAEVKKPGESLKISCKGSGYSFTSYWISWVRQMPGKGLEWMGIIDPSDSDTRYSPSFQGQVTISADKSISTAYLQWSSLKASDTAMYYCARGDGSTDLDYWGQGTLVTVSSGHHHHHH
notes: form VL-(Gly4Ser)4-VH-Gly-His6, expressed in HEK293 Expi cells; also called I3RB18 scFv; I3RB18 derived scFv
Regarding B1, the binding result in assay [1] is recorded as “binds”.

B2: I3RB120 (Fab, V domains shown)
VH: EVQLLESGGGLVQPGGSLRLSCAASGFTFSGYWMHWVRQAPGKGLEWVSAIRSDGSSKYYADSVKGRFTISRDNSKNTLYLQMNSLRAEDTAVYYCAKDGVIEDTFDYWGQGTLVTVSS
VL: EIVLTQSPATLSLSPGERATLSCRASQSVSSYLAWYQQKPGQAPRLLIYDASNRATGIPARFSGSGSGTDFTLTISSLEPEDFAVYYCQQRSNWPLTFGQGTKVEIK
notes: also called Fab I3RB120; I3RB2 Fab
Regarding B2, the Kd is greater than 11.9 nM in assay [2]; roughly 3.84 nM in assay [3]; 1.4 nM in [4]; 8.5 nM in assay [5]; 3.81 nM in assay [6]; 2.4 nM in [7]. Further, the Kd in assay [9] was 344 nM; in [10], roughly 3.37 pM. Moreover, the koff in assay [5] is 0.00304 s⁻¹. For the same molecule, in assay [5], the kon is 357000 M⁻¹ s⁻¹. Further, the “fold difference of affinity against human CD123 SP1” value in assay [8] was less than 5 fold.
